Our source for the switch fluorescence ratio values is the supplement of paper PMC10126150.

This series has as its system ATP. The series can be described thus: switch fluorescence ratio, 500 uM ATP over buffer (Cy3 cluster intensity, sum of 5 cycles each) (fold (ratio)); higher = stronger signal-on switching upon ATP binding; sequences stand for … in TCGTCGGCAGCGTCAGATGTGTATAAGAGACAGTTTTTTTTTTTTTTTTTTTTTTTTT…TC. Particulars: aptamer strand: ATP DNA aptamer (quencher-CACCTGGGGGAGTATTGCGGAGGAAGG + anchor), 100 nM annealed; ATP concentration: 500 uM. The procedure, abridged: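 Clusters with intensities outside 100-1000 RFU were excluded. The remaining Cy3-labelled switching-strand clusters on a modified Illumina MiSeq flow-cell had been annealed to 100 nM quencher-labelled ATP aptamer and imaged in selection buffer, then after 15 min with 500 uM ATP at 22 °C, for five cycles separated by NaOH stripping and re-annealing. The fluorescence ratio, averaged per switch-domain sequence, is each cluster's summed target-cycle Cy3 intensity over its summed buffer-cycle Cy3 intensity.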

± gives the standard deviation of the averaged measurements.
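Note: ATP exposure 15 min at 22 °C before imaging.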

Consider GCTGGGTAAC, for which the switch fluorescence ratio was 1.006 ± 0.0034.
The value for GCTGGGTGCA was 0.9719 ± 0.0016; that for GCTGGGTTGC was 1.01 ± 0.024.
For the sequence GCTGGGTTGG, the switch fluorescence ratio was found to be 1 ± 0.026.
Then GCTGGTATAT, with 1.01 ± 0.016.
As to GCTGGTCGCC, the switch fluorescence ratio amounted to 1.005 ± 0.01.
Then GCTGGTTTCG, with 1.033 ± 0.0054; and GCTGTAACG, with 1 ± 0.042; and GCTGTAACTG, with 1.08 ± 0.017.
For the sequence GCTGTAATTT, the switch fluorescence ratio came out at 0.998 ± 0.056.
Consider GCTGTACGCG, for which the switch fluorescence ratio was 1.03 ± 0.029.
As to GCTGTAGAAG, the switch fluorescence ratio was 0.9951 ± 0.0056.
Then GCTGTAGGGG, with 1.02 ± 0.081; and GCTGTATTTA, with 0.974 ± 0.024; and GCTGTCAATC, with 1.11 ± 0.053.
GCTGTCGCTT: the switch fluorescence ratio is 1.03 ± 0.027.
As for GCTGTGGGTA, the switch fluorescence ratio turned out to be 0.989 ± 0.01.
GCTGTTGTTG: the switch fluorescence ratio came out at 0.9918 ± 0.0051.
Consider GCTTAAGGCG, for which the switch fluorescence ratio came out at 0.991 ± 0.051.
Take GCTTAAGGCT: the switch fluorescence ratio came to 1 ± 0.022.
On to GCTTACAGGC, for which the switch fluorescence ratio was determined as 1.04 ± 0.048.
Regarding GCTTACGGGG, the switch fluorescence ratio is 1.04 ± 0.049.
For GCTTACTCAT, the switch fluorescence ratio was 1.09 ± 0.043.
As to GCTTATTTAA, the switch fluorescence ratio worked out at 0.99 ± 0.021.
Consider GCTTCAAGTC, for which the switch fluorescence ratio is 0.978 ± 0.018.
In the case of GCTTCAAGTT, the switch fluorescence ratio was found to be 0.985 ± 0.027.
For GCTTCCTTGG, the switch fluorescence ratio was 1.31 ± 0.079.
The value for GCTTCGGCCT was 1.02 ± 0.058.
GCTTCGGCGC: the switch fluorescence ratio amounted to 1.03 ± 0.046.
Turning to GCTTCGTGTT, the switch fluorescence ratio amounted to 1.05 ± 0.003.
The value for GCTTGAGGGA was 0.984 ± 0.042; that for GCTTGAGGGG was 1.012 ± 0.0022.
As to GCTTGCGGGA, the switch fluorescence ratio stood at 1.03 ± 0.019.
Turning to GCTTGCGGTC, the switch fluorescence ratio amounted to 0.9873 ± 0.0095.
Consider GCTTGGACTA, for which the switch fluorescence ratio is 0.967 ± 0.011.
On to GCTTGGGGTT, for which the switch fluorescence ratio came to 0.98 ± 0.021.
With GCTTGTATTT, the switch fluorescence ratio turned out to be 1 ± 0.014.
GCTTGTGAGG: the switch fluorescence ratio worked out at 1.02 ± 0.022.
GCTTGTTAAA: the switch fluorescence ratio amounted to 0.994 ± 0.037.
With GCTTTACTGT, the switch fluorescence ratio was 1.01 ± 0.013.
Turning to GCTTTAGTTC, the switch fluorescence ratio worked out at 1.03 ± 0.003.
As to GCTTTATAGG, the switch fluorescence ratio amounted to 1 ± 0.016.
Consider GCTTTATAGT, for which the switch fluorescence ratio amounted to 0.985 ± 0.049.
Then GCTTTATGCT, with 0.9714 ± 0.0025; and GCTTTATTTA, with 0.992 ± 0.053.
Take GCTTTCTCGT: the switch fluorescence ratio was 1.03 ± 0.029.
As for GCTTTGAATG, the switch fluorescence ratio stood at 1.011 ± 0.005.
With GCTTTGGATA, the switch fluorescence ratio amounted to 1.04 ± 0.055.
Consider GCTTTGGCTA, for which the switch fluorescence ratio is 1.02 ± 0.036.
Then GCTTTGGGCA, with 0.9992 ± 0.0067; and GCTTTGTGTA, with 1.01 ± 0.049; and GCTTTTACGG, with 1.07 ± 0.016.
On to GCTTTTGGGG, for which the switch fluorescence ratio was found to be 1.03 ± 0.087.
The value for GCTTTTGGGT was 1 ± 0.025; that for GCTTTTGTAC was 1.05 ± 0.05; that for GCTTTTTAGG was 0.964 ± 0.024.
With GCTTTTTTTG, the switch fluorescence ratio is 1.017 ± 0.0079.
For the sequence GGAAAAAATA, the switch fluorescence ratio came to 1.001 ± 0.0072.
In the case of GGAAAATCAA, the switch fluorescence ratio is 0.9812 ± 0.0078.
GGAAAATTAA: the switch fluorescence ratio worked out at 1 ± 0.033.
As to GGAAACGGGG, the switch fluorescence ratio was determined as 1.001 ± 0.0064.
GGAAAGAACA: the switch fluorescence ratio was found to be 0.9817 ± 0.0079.
The value for GGAAAGAGTT was 1.07 ± 0.056.
In the case of GGAAAGATAG, the switch fluorescence ratio came to 1.022 ± 0.0046.
Then GGAAATAAGG, with 1.01 ± 0.033; and GGAAATAGTG, with 0.966 ± 0.044; and GGAAATCACA, with 1.01 ± 0.029.
Regarding GGAAATGACT, the switch fluorescence ratio turned out to be 1.01 ± 0.021.
On to GGAAATGGGG, for which the switch fluorescence ratio is 0.987 ± 0.11.
Consider GGAAATTTTT, for which the switch fluorescence ratio is 0.973 ± 0.019.
Take GGAACACACG: the switch fluorescence ratio worked out at 1.32 ± 0.039.
Consider GGAACATAG, for which the switch fluorescence ratio worked out at 0.9987 ± 0.0023.
For the sequence GGAACCATAT, the switch fluorescence ratio was 0.997 ± 0.013.
As to GGAACCTCTG, the switch fluorescence ratio came out at 1.012 ± 0.0037.
In the case of GGAACGTAGG, the switch fluorescence ratio came out at 1.016 ± 0.0083.
GGAACGTTCT: the switch fluorescence ratio is 0.995 ± 0.046.
With GGAACGTTGG, the switch fluorescence ratio amounted to 0.973 ± 0.045.
As to GGAAGATTTT, the switch fluorescence ratio is 0.989 ± 0.058.
The value for GGAAGCGCTC was 1 ± 0.02; that for GGAAGGAGTC was 0.991 ± 0.019.
GGAAGGGGCC: the switch fluorescence ratio was determined as 1.03 ± 0.086.
For GGAAGGGGGC, the switch fluorescence ratio is 0.9707 ± 0.0066.
In the case of GGAAGGGGGT, the switch fluorescence ratio was 1.01 ± 0.12.
Take GGAAGGGGTA: the switch fluorescence ratio was 1.01 ± 0.048.
Turning to GGAAGGGTAT, the switch fluorescence ratio amounted to 1 ± 0.03.
In the case of GGAAGTCCGG, the switch fluorescence ratio worked out at 1.03 ± 0.022.
The value for GGAATAGTTT was 1.03 ± 0.047.
With GGAATCATAG, the switch fluorescence ratio amounted to 1.06 ± 0.07.
On to GGAATCGGTC, for which the switch fluorescence ratio was determined as 1 ± 0.051.
Then GGAATCTGGG, with 0.983 ± 0.05; and GGAATCTGTA, with 0.949 ± 0.022; and GGAATGCGCA, with 1.028 ± 0.0068.
Regarding GGAATGGAAC, the switch fluorescence ratio is 1.01 ± 0.024.
Regarding GGAATGTTTT, the switch fluorescence ratio is 0.994 ± 0.023.
GGAATTACTT: the switch fluorescence ratio amounted to 0.987 ± 0.031.
As for GGAATTCGGG, the switch fluorescence ratio was 1.01 ± 0.025.
For the sequence GGAATTGTTT, the switch fluorescence ratio is 0.974 ± 0.048.
As for GGACAAGCGT, the switch fluorescence ratio is 0.987 ± 0.021.
For GGACACGATT, the switch fluorescence ratio turned out to be 0.986 ± 0.051.
As for GGACAGGGGA, the switch fluorescence ratio was determined as 1.87 ± 1.2.
On to GGACATAATT, for which the switch fluorescence ratio is 1.01 ± 0.029.
As to GGACCAAACG, the switch fluorescence ratio came out at 1.05 ± 0.024.
On to GGACCGGGAC, for which the switch fluorescence ratio came to 1.12 ± 0.11.
As to GGACGCTGTG, the switch fluorescence ratio amounted to 0.986 ± 0.043.
Consider GGACGGCGGG, for which the switch fluorescence ratio was found to be 1 ± 0.034.
In the case of GGACGGGATT, the switch fluorescence ratio amounted to 1.02 ± 0.068.
In the case of GGACGGTCGG, the switch fluorescence ratio was 1.01 ± 0.052.
For the sequence GGACGTCGGA, the switch fluorescence ratio came to 1.05 ± 0.12.
As for GGACGTGGGA, the switch fluorescence ratio came to 0.9944 ± 0.0036.
On to GGACTAAAAT, for which the switch fluorescence ratio is 1.08 ± 0.13.
Regarding GGACTAGGAA, the switch fluorescence ratio stood at 1.01 ± 0.026.
In the case of GGACTCTGCG, the switch fluorescence ratio is 1 ± 0.028.
Turning to GGACTGGCTA, the switch fluorescence ratio came to 1.02 ± 0.035.
GGACTGGGCT: the switch fluorescence ratio was found to be 0.9806 ± 0.0081.
On to GGACTTATGG, for which the switch fluorescence ratio worked out at 0.9851 ± 0.0091.
Then GGACTTGGGC, with 0.986 ± 0.036.
With GGACTTGGGT, the switch fluorescence ratio is 0.9702 ± 0.0082.
For the sequence GGAGAAAATG, the switch fluorescence ratio is 1.0023 ± 0.00074.
As to GGAGAAATGT, the switch fluorescence ratio turned out to be 0.998 ± 0.011.
With GGAGAAGAGT, the switch fluorescence ratio is 1.04 ± 0.015.
